These results are taken from patent US20180155451A1 (published 2018).

To fix the notation:
B1: GpH7-A5/GpH7-B3 variant S337_08L/GpL16-k0 (antibody, human IgG1, kappa)
heavy 1: not shown
heavy 2: not shown
light: DIVMTQSPLSLPVTPGEPASISCQASESLVHSNRNTYLHWYLQKPGQSPQLLIYKVSNRFSGVPDRFSGSGSGTDFTLKISRVEAEDVGVYYCSQNTHVPPTFGQGTKVEIERTVAAPSVFIFPPSDEQLKSGTASVVCLLNNFYPREAKVQWKVDNALQSGNSQESVTEQDSKDSTYSLSSTLTLSKADYEKHKVYACEVTHQGLSSPVTKSFNRGEC
notes: heterodimerized, mutation in one H chain only; also called He Ab
B2: GpH7-A5/GpH7-B3 variant I336_06M/GpL16-k0 (antibody, human IgG1, kappa)
heavy 1: not shown
heavy 2: not shown
light: B1 light
notes: as for B1
B3: GpH7-A5/GpH7-B3 variant L328_06M/GpL16-k0 (antibody, human IgG1, kappa)
heavy 1: not shown
heavy 2: not shown
light: B1 light
notes: as for B1
B4: GpH7-A5/GpH7-B3 variant G236_03V/GpL16-k0 (antibody, human IgG1, kappa)
heavy 1: not shown
heavy 2: not shown
light: B1 light
notes: as for B1
B5: GpH7-A5/GpH7-B3 variant K326_10E/GpL16-k0 (antibody, human IgG1, kappa)
heavy 1: not shown
heavy 2: not shown
light: B1 light
notes: as for B1
B6: GpH7-A5/GpH7-B3 variant L235_04F/GpL16-k0 (antibody, human IgG1, kappa)
heavy 1: not shown
heavy 2: not shown
light: B1 light
notes: as for B1
B7: GpH7-A5/GpH7-B3 variant L328_20W/GpL16-k0 (antibody, human IgG1, kappa)
heavy 1: not shown
heavy 2: not shown
light: B1 light
notes: as for B1
B8: GpH7-A5/GpH7-B3 variant L235_15Y/GpL16-k0 (antibody, human IgG1, kappa)
heavy 1: not shown
heavy 2: not shown
light: B1 light
notes: as for B1
B9: GpH7-A5/GpH7-B3 variant Y296_04F/GpL16-k0 (antibody, human IgG1, kappa)
heavy 1: not shown
heavy 2: not shown
light: B1 light
notes: as for B1
B10: GpH7-A5/GpH7-B3 variant K334_04F/GpL16-k0 (antibody, human IgG1, kappa)
heavy 1: not shown
heavy 2: not shown
light: B1 light
notes: as for B1
B11: GpH7-A5/GpH7-B3 variant E333_09D/GpL16-k0 (antibody, human IgG1, kappa)
heavy 1: not shown
heavy 2: not shown
light: B1 light
notes: as for B1
B12: GpH7-A5/GpH7-B3 variant H268_18N/GpL16-k0 (antibody, human IgG1, kappa)
heavy 1: not shown
heavy 2: not shown
light: B1 light
notes: as for B1
B13: GpH7-A5/GpH7-B3 variant T335_18N/GpL16-k0 (antibody, human IgG1, kappa)
heavy 1: not shown
heavy 2: not shown
light: B1 light
notes: as for B1
B14: GpH7-A5/GpH7-B3 variant V266_08L/GpL16-k0 (antibody, human IgG1, kappa)
heavy 1: not shown
heavy 2: not shown
light: B1 light
notes: as for B1
B15: GpH7-A5/GpH7-B3 variant T335_20W/GpL16-k0 (antibody, human IgG1, kappa)
heavy 1: not shown
heavy 2: not shown
light: B1 light
notes: as for B1
B16: GpH7-A5/GpH7-B3 variant L328_14T/GpL16-k0 (antibody, human IgG1, kappa)
heavy 1: not shown
heavy 2: not shown
light: B1 light
notes: as for B1
B17: GpH7-A5/GpH7-B3 variant K326_06M/GpL16-k0 (antibody, human IgG1, kappa)
heavy 1: not shown
heavy 2: not shown
light: B1 light
notes: as for B1
B18: GpH7-A5/GpH7-B3 variant A330_16H/GpL16-k0 (antibody, human IgG1, kappa)
heavy 1: not shown
heavy 2: not shown
light: B1 light
notes: as for B1
B19: GpH7-A5/GpH7-B3 variant L235_20W/GpL16-k0 (antibody, human IgG1, kappa)
heavy 1: not shown
heavy 2: not shown
light: B1 light
notes: as for B1
B20: GpH7-A5/GpH7-B3 variant K334_16H/GpL16-k0 (antibody, human IgG1, kappa)
heavy 1: not shown
heavy 2: not shown
light: B1 light
notes: as for B1
B21: GpH7-A5/GpH7-B3 variant G236_07I/GpL16-k0 (antibody, human IgG1, kappa)
heavy 1: not shown
heavy 2: not shown
light: B1 light
notes: as for B1
B22: GpH7-A5/GpH7-B3 variant K326_19Q/GpL16-k0 (antibody, human IgG1, kappa)
heavy 1: not shown
heavy 2: not shown
light: B1 light
notes: as for B1
B23: GpH7-A5/GpH7-B3 variant S337_20W/GpL16-k0 (antibody, human IgG1, kappa)
heavy 1: not shown
heavy 2: not shown
light: B1 light
notes: as for B1
B24: GpH7-A5/GpH7-B3 variant Y296_16H/GpL16-k0 (antibody, human IgG1, kappa)
heavy 1: not shown
heavy 2: not shown
light: B1 light
notes: as for B1
B25: GpH7-A5/GpH7-B3 variant Y296_09D/GpL16-k0 (antibody, human IgG1, kappa)
heavy 1: not shown
heavy 2: not shown
light: B1 light
notes: as for B1
B26: GpH7-A5/GpH7-B3 variant H268_02A/GpL16-k0 (antibody, human IgG1, kappa)
heavy 1: not shown
heavy 2: not shown
light: B1 light
notes: as for B1
B27: GpH7-A5/GpH7-B3 variant K334_08L/GpL16-k0 (antibody, human IgG1, kappa)
heavy 1: not shown
heavy 2: not shown
light: B1 light
notes: as for B1
B28: GpH7-A5/GpH7-B3 variant I336_08L/GpL16-k0 (antibody, human IgG1, kappa)
heavy 1: not shown
heavy 2: not shown
light: B1 light
notes: as for B1
B29: GpH7-A5/GpH7-B3 variant H268_19Q/GpL16-k0 (antibody, human IgG1, kappa)
heavy 1: not shown
heavy 2: not shown
light: B1 light
notes: as for B1
B30: GpH7-B3 variant S239_10E/GpL16-k0 (antibody, human IgG1, kappa)
heavy: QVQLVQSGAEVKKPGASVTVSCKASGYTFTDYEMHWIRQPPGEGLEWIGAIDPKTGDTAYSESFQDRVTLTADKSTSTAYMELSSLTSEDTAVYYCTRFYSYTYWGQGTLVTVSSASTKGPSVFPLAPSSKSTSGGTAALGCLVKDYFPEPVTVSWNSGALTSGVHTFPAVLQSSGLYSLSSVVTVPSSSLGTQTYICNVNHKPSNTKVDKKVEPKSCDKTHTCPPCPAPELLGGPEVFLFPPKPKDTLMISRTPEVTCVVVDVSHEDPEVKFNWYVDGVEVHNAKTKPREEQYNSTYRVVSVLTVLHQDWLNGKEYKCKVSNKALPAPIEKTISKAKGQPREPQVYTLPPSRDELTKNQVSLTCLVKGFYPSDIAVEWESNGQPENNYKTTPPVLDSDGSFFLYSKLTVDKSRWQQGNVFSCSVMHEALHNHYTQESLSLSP
light: B1 light
notes: homodimerized, mutation in both H chains; also called Ho Ab
B31: GpH7-B3 variant E333_13S/GpL16-k0 (antibody, human IgG1, kappa)
heavy: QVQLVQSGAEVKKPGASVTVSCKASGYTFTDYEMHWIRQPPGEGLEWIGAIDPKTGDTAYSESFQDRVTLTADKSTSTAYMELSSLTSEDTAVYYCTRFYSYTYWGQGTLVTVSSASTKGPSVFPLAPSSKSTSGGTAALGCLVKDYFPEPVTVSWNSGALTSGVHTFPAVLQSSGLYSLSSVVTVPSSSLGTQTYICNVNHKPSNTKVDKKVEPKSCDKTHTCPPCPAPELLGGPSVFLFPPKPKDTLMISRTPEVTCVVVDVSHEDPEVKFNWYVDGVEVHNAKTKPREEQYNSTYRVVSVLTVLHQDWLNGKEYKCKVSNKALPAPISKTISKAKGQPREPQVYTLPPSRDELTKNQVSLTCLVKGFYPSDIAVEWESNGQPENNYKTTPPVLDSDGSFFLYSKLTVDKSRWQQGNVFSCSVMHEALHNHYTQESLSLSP
light: B1 light
notes: as for B30
B32: GpH7-B3 variant A330_19Q/GpL16-k0 (antibody, human IgG1, kappa)
heavy: not shown
light: B1 light
notes: as for B30
B33: GpH7-B3 variant K334_19Q/GpL16-k0 (antibody, human IgG1, kappa)
heavy: not shown
light: B1 light
notes: as for B30
B34: GpH7-B3 variant E333_14T/GpL16-k0 (antibody, human IgG1, kappa)
heavy: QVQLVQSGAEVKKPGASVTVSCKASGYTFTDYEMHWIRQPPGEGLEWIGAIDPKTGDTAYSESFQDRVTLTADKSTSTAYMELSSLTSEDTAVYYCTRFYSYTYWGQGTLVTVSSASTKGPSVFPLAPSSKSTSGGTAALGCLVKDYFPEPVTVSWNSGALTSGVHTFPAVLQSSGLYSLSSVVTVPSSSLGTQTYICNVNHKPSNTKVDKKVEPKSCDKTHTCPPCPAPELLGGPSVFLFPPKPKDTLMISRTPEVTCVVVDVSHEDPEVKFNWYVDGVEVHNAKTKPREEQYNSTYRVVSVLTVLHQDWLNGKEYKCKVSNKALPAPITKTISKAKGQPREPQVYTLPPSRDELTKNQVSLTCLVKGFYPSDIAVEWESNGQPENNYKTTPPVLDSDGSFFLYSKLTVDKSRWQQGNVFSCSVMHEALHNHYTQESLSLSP
light: B1 light
notes: as for B30
B35: GpH7-B3 variant L234_20W/GpL16-k0 (antibody, human IgG1, kappa)
heavy: not shown
light: B1 light
notes: as for B30
B36: GpH7-B3 variant S337_07I/GpL16-k0 (antibody, human IgG1, kappa)
heavy: not shown
light: B1 light
notes: as for B30
B37: GpH7-B3 variant L234_04F/GpL16-k0 (antibody, human IgG1, kappa)
heavy: not shown
light: B1 light
notes: as for B30
B38: GpH7-B3 variant I336_18N/GpL16-k0 (antibody, human IgG1, kappa)
heavy: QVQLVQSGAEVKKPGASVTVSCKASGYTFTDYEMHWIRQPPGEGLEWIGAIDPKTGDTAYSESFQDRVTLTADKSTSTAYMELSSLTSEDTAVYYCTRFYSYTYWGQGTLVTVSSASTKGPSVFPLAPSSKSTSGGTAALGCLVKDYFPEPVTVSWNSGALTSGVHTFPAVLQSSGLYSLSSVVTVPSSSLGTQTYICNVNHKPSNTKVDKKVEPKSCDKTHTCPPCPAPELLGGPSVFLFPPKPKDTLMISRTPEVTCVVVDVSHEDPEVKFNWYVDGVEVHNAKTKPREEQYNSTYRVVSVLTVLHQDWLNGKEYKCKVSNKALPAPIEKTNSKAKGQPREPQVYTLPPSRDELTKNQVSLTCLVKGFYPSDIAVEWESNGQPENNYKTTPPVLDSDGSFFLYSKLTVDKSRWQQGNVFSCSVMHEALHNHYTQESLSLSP
light: B1 light
notes: as for B30
B39: GpH7-B3 variant S267_10E/GpL16-k0 (antibody, human IgG1, kappa)
heavy: not shown
light: B1 light
notes: as for B30
B40: GpH7-B3 variant I336_10E/GpL16-k0 (antibody, human IgG1, kappa)
heavy: not shown
light: B1 light
notes: as for B30
B41: GpH7-B3 variant G236_15Y/GpL16-k0 (antibody, human IgG1, kappa)
heavy: not shown
light: B1 light
notes: as for B30
B42: GpH7-B3 variant E333_04F/GpL16-k0 (antibody, human IgG1, kappa)
heavy: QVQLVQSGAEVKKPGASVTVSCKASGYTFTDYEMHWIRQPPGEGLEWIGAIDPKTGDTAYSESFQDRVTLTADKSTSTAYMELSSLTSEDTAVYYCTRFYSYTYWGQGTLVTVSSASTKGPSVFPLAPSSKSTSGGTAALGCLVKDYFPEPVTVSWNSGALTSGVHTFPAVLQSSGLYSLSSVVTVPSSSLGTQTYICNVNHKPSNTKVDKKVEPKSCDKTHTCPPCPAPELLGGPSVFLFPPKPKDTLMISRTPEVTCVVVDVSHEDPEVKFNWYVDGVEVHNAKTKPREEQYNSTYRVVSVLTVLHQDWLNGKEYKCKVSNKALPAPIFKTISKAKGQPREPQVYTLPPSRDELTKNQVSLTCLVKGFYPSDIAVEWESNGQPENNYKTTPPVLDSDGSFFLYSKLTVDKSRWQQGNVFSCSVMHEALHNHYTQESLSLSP
light: B1 light
notes: as for B30
B43: GpH7-B3 variant S267_09D/GpL16-k0 (antibody, human IgG1, kappa)
heavy: not shown
light: B1 light
notes: as for B30
B44: GpH7-B3 variant K326_01G/GpL16-k0 (antibody, human IgG1, kappa)
heavy: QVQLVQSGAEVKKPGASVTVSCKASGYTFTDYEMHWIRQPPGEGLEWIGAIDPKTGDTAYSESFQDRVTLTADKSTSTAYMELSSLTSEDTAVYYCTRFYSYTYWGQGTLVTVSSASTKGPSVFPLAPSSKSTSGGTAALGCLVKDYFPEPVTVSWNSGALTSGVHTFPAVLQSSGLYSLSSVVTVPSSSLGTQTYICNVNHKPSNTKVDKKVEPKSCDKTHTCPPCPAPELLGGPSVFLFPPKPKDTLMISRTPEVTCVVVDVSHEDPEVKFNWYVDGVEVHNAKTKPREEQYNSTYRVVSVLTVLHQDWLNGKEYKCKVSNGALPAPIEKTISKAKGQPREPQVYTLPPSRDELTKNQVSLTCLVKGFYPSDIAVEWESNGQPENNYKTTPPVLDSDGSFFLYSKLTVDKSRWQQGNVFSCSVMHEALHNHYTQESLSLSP
light: B1 light
notes: as for B30
B45: GpH7-B3 variant E333_08L/GpL16-k0 (antibody, human IgG1, kappa)
heavy: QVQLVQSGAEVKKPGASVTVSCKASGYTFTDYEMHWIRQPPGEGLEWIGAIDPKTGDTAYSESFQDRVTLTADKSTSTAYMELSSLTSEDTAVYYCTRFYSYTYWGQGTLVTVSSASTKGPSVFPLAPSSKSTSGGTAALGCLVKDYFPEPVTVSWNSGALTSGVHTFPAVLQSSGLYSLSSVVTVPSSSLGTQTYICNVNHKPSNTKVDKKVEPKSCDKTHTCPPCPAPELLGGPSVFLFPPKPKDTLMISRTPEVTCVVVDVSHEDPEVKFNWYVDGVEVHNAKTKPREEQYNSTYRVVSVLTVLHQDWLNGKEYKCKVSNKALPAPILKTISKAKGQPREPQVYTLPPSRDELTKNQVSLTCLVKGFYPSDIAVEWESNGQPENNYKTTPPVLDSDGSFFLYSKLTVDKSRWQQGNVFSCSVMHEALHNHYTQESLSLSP
light: B1 light
notes: as for B30
B46: GpH7-B3 variant K334_13S/GpL16-k0 (antibody, human IgG1, kappa)
heavy: not shown
light: B1 light
notes: as for B30
B47: GpH7-B3 variant G236_14T/GpL16-k0 (antibody, human IgG1, kappa)
heavy: not shown
light: B1 light
notes: as for B30
B48: GpH7-B3 variant L234_15Y/GpL16-k0 (antibody, human IgG1, kappa)
heavy: not shown
light: B1 light
notes: as for B30
B49: GpH7-B3 variant K326_12R/GpL16-k0 (antibody, human IgG1, kappa)
heavy: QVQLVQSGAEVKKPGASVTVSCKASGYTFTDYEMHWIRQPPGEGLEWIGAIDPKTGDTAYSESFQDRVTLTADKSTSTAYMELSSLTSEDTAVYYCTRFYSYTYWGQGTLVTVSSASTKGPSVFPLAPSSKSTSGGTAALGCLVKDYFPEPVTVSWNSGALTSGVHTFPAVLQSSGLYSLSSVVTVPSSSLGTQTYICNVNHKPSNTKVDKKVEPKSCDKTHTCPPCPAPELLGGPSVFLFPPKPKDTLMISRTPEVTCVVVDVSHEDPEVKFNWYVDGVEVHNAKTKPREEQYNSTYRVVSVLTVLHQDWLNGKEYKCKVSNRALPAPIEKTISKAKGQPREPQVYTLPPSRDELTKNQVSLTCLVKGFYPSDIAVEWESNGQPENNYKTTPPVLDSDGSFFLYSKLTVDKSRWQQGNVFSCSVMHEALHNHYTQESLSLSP
light: B1 light
notes: as for B30
B50: GpH7-B3 variant A327_09D/GpL16-k0 (antibody, human IgG1, kappa)
heavy: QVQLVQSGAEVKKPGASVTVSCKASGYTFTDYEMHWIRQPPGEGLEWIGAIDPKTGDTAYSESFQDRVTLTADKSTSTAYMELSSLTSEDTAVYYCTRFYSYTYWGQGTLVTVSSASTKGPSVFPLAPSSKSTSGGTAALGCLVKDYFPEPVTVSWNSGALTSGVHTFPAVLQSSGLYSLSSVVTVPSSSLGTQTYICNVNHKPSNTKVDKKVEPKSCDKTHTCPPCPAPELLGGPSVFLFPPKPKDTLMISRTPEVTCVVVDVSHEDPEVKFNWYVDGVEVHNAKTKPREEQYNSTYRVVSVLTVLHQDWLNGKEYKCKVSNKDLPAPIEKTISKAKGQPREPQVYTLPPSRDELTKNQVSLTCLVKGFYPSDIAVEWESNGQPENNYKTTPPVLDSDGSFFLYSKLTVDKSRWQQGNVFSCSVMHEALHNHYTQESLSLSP
light: B1 light
notes: as for B30
B51: GpH7-B3 variant G236_04F/GpL16-k0 (antibody, human IgG1, kappa)
heavy: not shown
light: B1 light
notes: as for B30
B52: GpH7-B3 variant K326_07I/GpL16-k0 (antibody, human IgG1, kappa)
heavy: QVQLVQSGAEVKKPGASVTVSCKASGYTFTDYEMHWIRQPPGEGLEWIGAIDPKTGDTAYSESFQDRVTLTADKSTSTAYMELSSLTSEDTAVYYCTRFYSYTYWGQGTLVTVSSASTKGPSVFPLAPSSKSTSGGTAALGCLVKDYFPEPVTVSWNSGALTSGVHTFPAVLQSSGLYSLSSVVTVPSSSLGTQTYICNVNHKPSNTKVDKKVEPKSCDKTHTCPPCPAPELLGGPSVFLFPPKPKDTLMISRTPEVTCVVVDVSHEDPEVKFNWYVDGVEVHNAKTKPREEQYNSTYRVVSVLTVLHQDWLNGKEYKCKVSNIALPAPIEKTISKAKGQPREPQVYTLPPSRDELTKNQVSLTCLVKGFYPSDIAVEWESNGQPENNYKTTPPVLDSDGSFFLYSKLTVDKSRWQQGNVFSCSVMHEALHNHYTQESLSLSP
light: B1 light
notes: as for B30
B53: GpH7-B3 variant I336_03V/GpL16-k0 (antibody, human IgG1, kappa)
heavy: not shown
light: B1 light
notes: as for B30
B54: GpH7-B3 variant S239_08L/GpL16-k0 (antibody, human IgG1, kappa)
heavy: not shown
light: B1 light
notes: as for B30

In the first assay the target is T1, FcγRIIa H (human FcγRIIa, allotype with His at position 131), extracellular domain with C-terminal His tag (human, UniProt P12318 34-217). Kind of assay: SPR (Biacore), antibody captured on antigen peptide chip, FcγR as analyte; relative to HeCon Ab GpH7-A5/GpH7-B3/GpL16-k0 = 100. (In SPR one partner is held on a chip, and binding of the other changes the refractive index at the surface.)
T1 sequence (P12318 34-217): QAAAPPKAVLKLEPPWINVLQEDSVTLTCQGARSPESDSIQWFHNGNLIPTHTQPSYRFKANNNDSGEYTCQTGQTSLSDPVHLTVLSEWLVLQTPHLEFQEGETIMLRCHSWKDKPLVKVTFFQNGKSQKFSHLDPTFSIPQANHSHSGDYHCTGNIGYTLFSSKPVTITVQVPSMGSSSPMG
In turn, B1 displayed a He/Con_2aH of 100 control = 100. In the case of B2, the He/Con_2aH is 106 control = 100. B3 gave a He/Con_2aH of 104 control = 100.

B4 registered a He/Con_2aH of 119 control = 100. Still for that read-out and setting: as for B5, the figure is 102 control = 100. B6: the He/Con_2aH turned out to be 111 control = 100. B7 registered a He/Con_2aH of 113 control = 100.

As to B8, the He/Con_2aH worked out at 122 control = 100. The same measure, in the same setting: the result for B9 reads 100 control = 100; that for B10, 106 control = 100; that for B11, 103 control = 100. Still for that read-out and setting: the result for B12 reads 112 control = 100; that for B13, 103 control = 100; that for B14, 104 control = 100. Molecule B15 displayed a He/Con_2aH of 105 control = 100. The molecule B16 yielded a He/Con_2aH of 116 control = 100.

Take B17: the He/Con_2aH was found to be 103 control = 100. Same read-out and setting: as for B18, the figure is 101 control = 100. For the molecule B19, the He/Con_2aH amounted to 118 control = 100. In the case of B20, the He/Con_2aH is 104 control = 100. The same measure, in the same setting: the result for B21 reads 115 control = 100; that for B22, 101 control = 100. The same measure, in the same setting: as for B23, the figure is 102 control = 100; as for B24, 104 control = 100; as for B25, 104 control = 100.

In the case of B26, the He/Con_2aH was determined as 114 control = 100. B27 gave a He/Con_2aH of 104 control = 100. The same measure, in the same setting: the result for B28 reads 106 control = 100; that for B29, 102 control = 100.

The next assay addresses T1, FcγRIIa H (human FcγRIIa, allotype with …). The assay is described as follows: SPR (Biacore), antibody captured on antigen peptide chip, FcγR as analyte; relative to HoCon Ab GpH7-B3/GpL16-k0 = 100.
As to B30, the Ho/Con_2aH was 91.4 control = 100. In turn, B31 returned a Ho/Con_2aH of 94.6 control = 100.

For the molecule B32, the Ho/Con_2aH was determined as 99.2 control = 100. On the same count and under the same terms, as for B33, the figure is 97.2 control = 100; as for B34, 90.4 control = 100; as for B35, 55.3 control = 100. On the same count and under the same terms, the result for B36 reads 94 control = 100; that for B37, 54.2 control = 100. The same measure, in the same setting: as for B38, the figure is 94.3 control = 100; as for B39, 98.5 control = 100. B40 registered a Ho/Con_2aH of 93.4 control = 100. Same read-out and setting: the result for B41 reads 80.4 control = 100; that for B42, 93.6 control = 100; that for B43, 91.5 control = 100. The same measure, in the same setting: as for B44, the figure is 98.2 control = 100; as for B45, 96.5 control = 100. Same read-out and setting: the result for B46 reads 94.9 control = 100. For B47, the Ho/Con_2aH came out at 94.2 control = 100. The molecule B48 returned a Ho/Con_2aH of 43.8 control = 100. The molecule B49 came in with a Ho/Con_2aH of 98.8 control = 100. With B50, the Ho/Con_2aH stood at 90.1 control = 100.

In the case of B51, the Ho/Con_2aH worked out at 63.2 control = 100. The same measure, in the same setting: the result for B52 reads 78.1 control = 100. The molecule B53 gave a Ho/Con_2aH of 90.4 control = 100. As to B54, the Ho/Con_2aH is 87 control = 100.
